assay: yeast display, Sf9 membrane polyspecificity reagent, FACS + sequencing; frameworks hold sequencing errors
Procedure, shortened: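 Galactose-induced (36–48 hours) yeast carrying a synthetic nanobody display library were exposed to 10% biotinylated, detergent-solubilized Sf9 membrane reagent at 4 °C for 1 hour. FACS followed streptavidin microbead enrichment, using low and high (top ~1%) gates for expression (anti-HA) and reagent binding (streptavidin). Colony PCR, MiSeq 2 × 250 sequencing and CDR-length filtering followed. Labels for polyreactivity reflect the gate of origin.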

Sequence | polyreactivity (PSR sort gate)
QVHLVESGGGLVQAGGSLRLSCAASGFIFDKYAMGWYRQAPGKERELVAAITDTGGNTYYADSVKGRFTISRDNAKNTVYLQMNSLKPEDTAVYYCNADYNDYQTYSATTYEYWGQGTQVTVSS | low polyreactivity
QVQLVQSGGGLVQAGGSLSLSCAASGYIFISYAMGWNRQAPGQEREFVAAITGDGGSTYADSVKGRFTISRDNAKKTVYGQMNSLKPEDTAVYYCAKKGNASRYFIYDYWGQGTQVTVSS | low polyreactivity
QVQLVESGGGLVQAGGSLRLSCAASGSIFPYVNAMGWYRQAPGKERELVASIPGGGGTKYADSVKGRFTISRDNAKNTVYLQMNSLKPEDTAVYYCNATSGNPASTAWMNYWGQGTQVTVSS | low polyreactivity
QVQLVESGGGLVQAGGSLRLSCAASGSTFSYNAMGWYRQAPGKERELVAAISNGGSTNYADSVKGRFTISRDNAKNTVSLQMNSLKPEDTAVYYCAAHTYSELSWLVVYPYDYWGQGTQVTVSS | low polyreactivity
QVQLVESGGGLVQAGGSLRISCDASGSTFYPYAMGWYRQAPGKERELVAAISSGGSTSYADSVKGRFTISRDNAKNTVYLQMNSLKPEDTAVYYCNASSPGAVPVYDYDYWGQGTQVTVSS | low polyreactivity
QVQLVESGGGLVQAGGSLRLSCAASGSIFLQNAMGWYRQAPGKERELVAAITNGGSTNYADSVKGRFTISRDNAKNTVYLQMNSLKPEDTAVYYCAAERAILSSDKQSLWRFDYWGQGTQVTVSS | low polyreactivity
QVQLGESGGGLVQAGGSLRLSCAASGRTFIYDAMGWYRQAPGKERELVAGISRNGGRTYYADSVKGRFTISRDNAKNTVYLKMNSLKPEDTAVYYCIARTYSYRGYNYWGQGTQVTVSS | high polyreactivity
QVQLVESGGGLVQAGGSLRLSCAASGSTFTPNAMGSYRQAPGKERELDASISTTGGNTYYADSVKGRFTISRDNAKNTVYLQMNSLKPEDTAVYYCNAVRSVYLYGYIYGVDYWGQGTQVTVSS | low polyreactivity
QVQLVESGGGLVQAGGSLRLSCAASGIIFDWYAMGGYRQAPGKERELVAAITSGGGSTYYADSVKGRFTISRDNAKNSVYLQMNSLKPEDSAVYYCAADYQTIGWGYDYWGQGTQVTVSS | low polyreactivity
QVQLVESCGALVQASGTLRLSCAASGSIFGYNTMRWYRQAPGKERELVAAIYYSGGRTYYADSVKGRFTISRDNAKNTVYLQMNSLKPEDTAVYNCAARKGYRYYYRGQGTQVTVSS | high polyreactivity
QVQLVESGGGLVQAGGSLRLSCAASGRTFGGNAMGWYRQAPGKERELVAAITGRGGSTFYADSVKGRFTISRDNAKNTVYLQMNSLKPEDTAVYYCAKQFKRGYGYDYWGQGTQVTVSS | low polyreactivity
QVQLEESGGGLVQAGGSLRLSCAASGSIFWGYAIGWYRQAPGKERELVAAISNTGSTNYADSVKGRFTISRDNAKNTVYLQMNSLKPEDTAVYYCNASYTYGEMDYWGQGTQVTVSS | low polyreactivity
QVQLVESGGGLVQAGGSLRLSCAASGSIFWIYAMGWYRQAPGKERELVATITRRGGSTYYADSVKGRFTISRDNAKNTVYLQMNSLKPEDTAVYYCATEPGYTFLTSYKYDYWGQGTQVTVSS | low polyreactivity
QVQLVESGGGLVQAGGSLRLSCAASGSIFRWYAMGWYRQAPGKERELVAAITWSASRTYYADSVKGRFTISRDTAKNTVYLQMNSLKPEDTAVYYCAADHDGPYAGYDSWRQGTQVTVSS | low polyreactivity
QVQLVESGGGLVQAGGSLRLSCAASGSTFGHYVMGWYRQAPGKERELVAVISSSGGRTYYADSVKGRFTISRDNAKNTVYLQMNSLKPEDTAVYYCAAGSISTPGRGVDKPDPYDYWGQGTQVTVSS | low polyreactivity
QVQLVESGGGLVQAGGSLRLSCAASGITFNSYAMGWYRQAPGKERELVAAISGSGSSTYYADSVKGRFTISRDNAKNTVYLQMNSLKPEDTAVYYCAATGYSSWTYYTHEYWGQGTQVTVSS | low polyreactivity
QVQHVESGGGLVQAGGSLRLSCAASGSIFTVYAMGWYRQAPGKERELVAGITSGGNTNYADSVKGRFTISRDNAKNTVYLQMNSLKPEDTAVYYCAARIYGYVTYGYWGQGTQVTVSS | low polyreactivity
QVQLVESGGGLVQAGGSLRLSCAASGNTFSYNAMGWYRQAPGKEKELVAGITWSGGSTYYADSVKGRFTISRDNAKNTVYLQMNSLKPEDTAVYYCAKGYGSGVVRSRWSKYGYWGQGTQVTVSS | high polyreactivity
QVQLVESGGGLVQAGGSLRLSCAASGSTFVSNGMGWYRQAPGKERELVAAITRGGSTKYADSVKGRFTISRDNAKNTVYLQMNSLKPEDTAVYYCAKRLYTRPGWYDYWGQGTQVTVSS | high polyreactivity
QVQLVESGGGLVQAGGSLRLSCAASGYTFRYYAMGWYRQAPGKERELVAAINWSGGSTYYADSVKGRFTISRDNAKNTVYLQMNSLKPEDTAVYYCAADPDGDLDIDYDYWGQGTQVTVSS | low polyreactivity
QVQLVESGGGLVQAGGSLRLSCAASGSTFKYYAMVWYRQAPGKERELVAAISRSGGRTYYADSVKGRFTISRDNAKNTVYLQMNSLKPEDTAVSLCNAVVARVNVRGTPAFDYWGQGTQVTVSS | high polyreactivity

From the nanobody polyreactivity screen of Harvey et al. (2022)
